Data taken from the supplement of paper PMC9112550, “Optimization of the antimicrobial peptide Bac7 by deep mutational scanning” (BMC Biology, 2022).

System: Escherichia coli TOP10
Test: shrunken log2 fold change of peptide-encoding DNA abundance (4.5 h post-induction vs induction); higher = less antimicrobial activity (less host growth inhibition)
Details: time post-induction: 4.5 h; library: site-saturation at positions 5, 18, 19, 20
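Note: peptides expressed intracellularly from a pBAD plasmid library in pooled LB shake-flask culture, induced with 0.3% L-arabinose, DNA abundance read by NGS, three biological replicates, DESeq2 with apeglm shrinkage.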

Sequence | shrunken log2 fold change
RRIRHRPPRLPRPRPRPFTVPRP | -0.0532
RRIRGRPPRLPRPRPRPFHGPRP | 0.0325
RRIRVRPPRLPRPRPRPAGEPRP | 0.339
RRIRYRPPRLPRPRPRPQNTPRP | -1.07
RRIRHRPPRLPRPRPRPTKCPRP | -0.0314
RRIRFRPPRLPRPRPRPGPYPRP | -0.0125
RRIRCRPPRLPRPRPRPRCKPRP | -0.206
RRIRLRPPRLPRPRPRPPMKPRP | -0.144
RRIRNRPPRLPRPRPRPLEPPRP | 0.0692
RRIRVRPPRLPRPRPRPCGWPRP | 0.302
RRIRTRPPRLPRPRPRPHWLPRP | 0.122
RRIRERPPRLPRPRPRPIQTPRP | 0.0703
RRIRVRPPRLPRPRPRPDMLPRP | -0.024
RRIRDRPPRLPRPRPRPLLDPRP | 0.17
RRIRARPPRLPRPRPRPWFIPRP | -0.502
RRIRCRPPRLPRPRPRPVNQPRP | -0.174
RRIRCRPPRLPRPRPRPLCRPRP | 0.0269
RRIRRRPPRLPRPRPRPFRTPRP | -0.0909
RRIRIRPPRLPRPRPRPGTEPRP | -0.0203
RRIRWRPPRLPRPRPRPMNIPRP | -0.541
RRIRMRPPRLPRPRPRPKAFPRP | 0.0392
RRIRHRPPRLPRPRPRPWYRPRP | -0.0954
RRIRCRPPRLPRPRPRPYLFPRP | -1.19
RRIRWRPPRLPRPRPRPKINPRP | -0.245
RRIRFRPPRLPRPRPRPWNAPRP | -0.84

Sequence | shrunken log2 fold change
RRIRGRPPRLPRPRPRPTVVPRP | 0.41
RRIRMRPPRLPRPRPRPEDSPRP | 0.0648
RRIRSRPPRLPRPRPRPRKGPRP | 0.208
RRIRPRPPRLPRPRPRPDIRPRP | -0.0755
RRIRCRPPRLPRPRPRPLKAPRP | -0.249
RRIRWRPPRLPRPRPRPKCVPRP | -0.0153
RRIRMRPPRLPRPRPRPDRHPRP | 0.0052
RRIRLRPPRLPRPRPRPLHAPRP | 0.261
RRIRCRPPRLPRPRPRPPGKPRP | 0.141
RRIRHRPPRLPRPRPRPRQQPRP | 0.283
RRIRYRPPRLPRPRPRPFIVPRP | -0.173
RRIRDRPPRLPRPRPRPGDTPRP | -0.11
RRIRDRPPRLPRPRPRPRSMPRP | 0.211
RRIRIRPPRLPRPRPRPKYDPRP | -0.51
RRIRSRPPRLPRPRPRPNAHPRP | -0.184
RRIRSRPPRLPRPRPRPPIGPRP | 0.297
RRIRPRPPRLPRPRPRPQFVPRP | -0.528
RRIRDRPPRLPRPRPRPCGKPRP | 0.2
RRIRNRPPRLPRPRPRPKRCPRP | 0.406
RRIRSRPPRLPRPRPRPHHLPRP | -0.903
RRIRVRPPRLPRPRPRPSWQPRP | -0.251
RRIRIRPPRLPRPRPRPMGCPRP | 0.00177
RRIRKRPPRLPRPRPRPEAKPRP | 2.54
RRIRCRPPRLPRPRPRPGYWPRP | 0.196
RRIRNRPPRLPRPRPRPNQYPRP | -0.712

Sequence | shrunken log2 fold change
RRIRTRPPRLPRPRPRPMPLPRP | -0.104
RRIRPRPPRLPRPRPRPAYNPRP | -1.01
RRIRMRPPRLPRPRPRPTEQPRP | -0.0171
RRIRSRPPRLPRPRPRPEHDPRP | -0.128
RRIRNRPPRLPRPRPRPDIDPRP | -0.0391
RRIRPRPPRLPRPRPRPCWYPRP | -0.408
RRIRGRPPRLPRPRPRPKLHPRP | 0.64
RRIRPRPPRLPRPRPRPIWIPRP | -0.308
RRIRCRPPRLPRPRPRPNCMPRP | -0.369
RRIRTRPPRLPRPRPRPAEYPRP | -0.162
RRIRQRPPRLPRPRPRPNRAPRP | 0.025
RRIRGRPPRLPRPRPRPACKPRP | 0.923
RRIRPRPPRLPRPRPRPFFDPRP | -0.12
RRIRQRPPRLPRPRPRPNPYPRP | -0.0811
RRIRKRPPRLPRPRPRPFYEPRP | 0.0368
RRIRRRPPRLPRPRPRPNVLPRP | -0.185
RRIRRRPPRLPRPRPRPFCQPRP | -0.252
RRIRMRPPRLPRPRPRPDVVPRP | -0.0061
RRIRFRPPRLPRPRPRPKNVPRP | 0.04
RRIRLRPPRLPRPRPRPCDQPRP | -0.016
RRIRTRPPRLPRPRPRPQGGPRP | 0.114
RRIRERPPRLPRPRPRPQFPPRP | -0.253
RRIRYRPPRLPRPRPRPYDSPRP | -0.0285
RRIRERPPRLPRPRPRPHNDPRP | -0.335
RRIRDRPPRLPRPRPRPLLSPRP | 0.447

Sequence | shrunken log2 fold change
RRIRERPPRLPRPRPRPRICPRP | -0.111
RRIRSRPPRLPRPRPRPESMPRP | 0.151
RRIRWRPPRLPRPRPRPRSAPRP | 0.294
RRIRCRPPRLPRPRPRPEYTPRP | -0.139
RRIRCRPPRLPRPRPRPRAMPRP | 0.914
RRIRERPPRLPRPRPRPRIDPRP | -0.0634
RRIRIRPPRLPRPRPRPIRDPRP | -0.0759
RRIRERPPRLPRPRPRPEDWPRP | 0.351
RRIRNRPPRLPRPRPRPPYMPRP | -1.13
RRIRERPPRLPRPRPRPAPMPRP | 0.116
RRIRLRPPRLPRPRPRPLNCPRP | -0.156
RRIRSRPPRLPRPRPRPSTLPRP | 0.658
RRIRTRPPRLPRPRPRPIGLPRP | -0.115
RRIRFRPPRLPRPRPRPTYQPRP | -0.393
RRIRYRPPRLPRPRPRPTSSPRP | -0.0743
RRIRARPPRLPRPRPRPHMHPRP | -0.152
RRIRVRPPRLPRPRPRPLRNPRP | 0.408
RRIRKRPPRLPRPRPRPICLPRP | 0.141
RRIRARPPRLPRPRPRPGIVPRP | 0.174
RRIRNRPPRLPRPRPRPKPTPRP | 0.133
RRIRRRPPRLPRPRPRPTLAPRP | 0.939
RRIRKRPPRLPRPRPRPPWYPRP | 0.131
RRIRKRPPRLPRPRPRPVETPRP | 0.416
RRIRSRPPRLPRPRPRPYQAPRP | -0.0507
RRIRERPPRLPRPRPRPADCPRP | 0.0519

Sequence | shrunken log2 fold change
RRIRHRPPRLPRPRPRPINAPRP | 0.0354
RRIRQRPPRLPRPRPRPSHCPRP | 0.0811
RRIRLRPPRLPRPRPRPTYDPRP | 0.0466
RRIRARPPRLPRPRPRPYPDPRP | -0.0126
RRIRARPPRLPRPRPRPEQQPRP | 0.785
RRIRKRPPRLPRPRPRPFMWPRP | -0.078
RRIRDRPPRLPRPRPRPMHEPRP | 0.0698
RRIRYRPPRLPRPRPRPPIDPRP | -0.35
RRIRCRPPRLPRPRPRPCYWPRP | -0.595
RRIRERPPRLPRPRPRPYGKPRP | -0.00133
RRIRVRPPRLPRPRPRPLEYPRP | 0.0331
RRIRNRPPRLPRPRPRPSPGPRP | 0.431
RRIRMRPPRLPRPRPRPSHIPRP | -0.659
RRIRGRPPRLPRPRPRPLAVPRP | 0.809
RRIRDRPPRLPRPRPRPQIYPRP | -0.114
RRIRRRPPRLPRPRPRPLFEPRP | 0.245
RRIRERPPRLPRPRPRPRFTPRP | 1.87
RRIRWRPPRLPRPRPRPIRIPRP | -0.324
RRIRERPPRLPRPRPRPNARPRP | -0.0167
RRIRPRPPRLPRPRPRPFEAPRP | -0.105
RRIRTRPPRLPRPRPRPDENPRP | 0.0019
RRIRCRPPRLPRPRPRPSSAPRP | -0.278
RRIRKRPPRLPRPRPRPDAFPRP | 0.00489
RRIRARPPRLPRPRPRPHKSPRP | 0.42
RRIRQRPPRLPRPRPRPVEAPRP | 0.341
